Measurements taken from the RNAGym collection of RNA variant scans (doi:10.1073/pnas.2313332121).
Variants at the floor of the assay were thinned out.

B1: TPR 5TU (parent)
chain: GGAUCUUCUCGAUCUAACAAAAAAGACAAAUCUGCCACAAAGCUUGAGAGCAUCUUCGGAUGCAGAGGCGGCAGCCUUCGGUGGCGCGAUAGCGCCAACGUUCUCAACUAUGACACGCAAAACGCGUGCUCCGUUGAAUGGAGUUUAUCAUG

Variants of: B1
Test: polymerase ribozyme fitness, log enrichment relative to wild type (log ratio); higher = more active; in vitro selection for triplet polymerase activity
Procedure, shortened: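 Fitness measures genotype enrichment against wild-type enrichment on a logarithmic scale, with inverse-variance-weighted averaging of replicates. The logarithm is base 2, and genotypes were kept only with ≥10 input reads and ≥1 read per output in Illumina sequencing. The sequenced libraries came from one triplicate in vitro selection round, including frozen incubation at −7 °C, of PCR-built, transcribed mutant libraries of each subunit of a heterodimeric triplet polymerase ribozyme.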

Row | Variant | polymerase ribozyme fitness (log ratio)
1 | C18U A21C U55A | -0.649
2 | C18U G58C G86A U104C | -1.79
3 | C18G C93U A98G A120C G141U | 0.17
4 | C18G A26U C96A | -2.84
5 | A19G C54G C96G C149U | -3.72
6 | C18A A52G C87A G92C C95A U104A | ≤ -4.2
7 | C18G C93U G143U | -3.08
8 | C18A C38U C51U C96G C116G U148A | ≤ -4.2
9 | C18G C76G C85A U145A | ≤ -4.2
10 | C18U C57G U61A C87U A89U C116U C118G A122G U139A | ≤ -4.2
11 | C18G A21G A24U A41C U53G C54G G84U G92U C93G G143C | ≤ -4.2
12 | A19G A26C U144G | -2.17
13 | C18G C38A C93U C105U A113C | -4.17
14 | C18G C43A A52C G71A A91U C95G U146C | ≤ -4.2
15 | A19C C51U A142C | -0.768
16 | C18G A30U C35A U61G G62U C93U U111G G124A | ≤ -4.2
17 | C18U U55A | -1.49
18 | C18G A40U | 0.0147
19 | C18G G92U U130G | -4.01
20 | C18U C96U | -0.659
21 | C18U A37U U55A G86A | -3.67
22 | C18U C93U C99U A150G | -2.85
23 | C18G U45A A121U | -2.73
24 | A19C A52G G92C C96A A147C | -3.53

Row | Variant | polymerase ribozyme fitness (log ratio)
25 | C18G A24C G34A C57A C85U A89U A97G A120G A121U | ≤ -4.2
26 | A19C C54U G67U C85A | ≤ -4.2
27 | C18G U44A C96G G133A A137U | -4.04
28 | C18G A41C C85A G126U | -0.946
29 | A19C A39U G84C C93A U148A | ≤ -4.2
30 | C18U C54A A64G G83C A119U A147C | ≤ -4.2
31 | A19C A29U A39U A60U C76U C95U U144A | ≤ -4.2
32 | A19G C54G | -1.84
33 | C18U G84A U102A C123G | -2.76
34 | C18A C35G A39U G84U G126A A150C | ≤ -4.2
35 | C18A U31G G84C A89U | -2.91
36 | C18A A21G U33G C36A G84A G141C U144A C149U | ≤ -4.2
37 | C18G U31C G59C G81A C116G A138G | -4.15
38 | A19G A23G G67C C87U | ≤ -4.2
39 | A19C C123G | 0.921
40 | C18G G59A C75U C93A A107C C118A | ≤ -4.2
41 | C18G C32U C43U A89C | ≤ -4.2
42 | C18G C79G | -3.9
43 | C18G A24U U33A G124A U135A | ≤ -4.2
44 | C18U U31C U56G A138U G140A | -4
45 | A19C C38A C57A G80U C95U C116G | -1.83
46 | C18U C132U U135A | -2.33
47 | A19C A24G G94U C95G | ≤ -4.2
48 | A19C G117C | 0.678

Row | Variant | polymerase ribozyme fitness (log ratio)
49 | C18U C85G | -2.3
50 | C18U C85U | -0.241
51 | C18U A41G C51U A115C G140U | -3.82
52 | C18G A24G C57U C93G G94C G117C | ≤ -4.2
53 | C18G C38G G81C C93G | ≤ -4.2
54 | C18G C27U A37G A47C U55A G65U C85U | -4.19
55 | A19G A20G A60G C76A A89U C93A | ≤ -4.2
56 | A19G A91G C95U C125U | -4.01
57 | C18U A37C G68A A107U C125A G140C | ≤ -4.2
58 | A19G A41C G42C A49C U90C U127A | ≤ -4.2
59 | C18G A19U G83U C95U C118U U144A | -3.01
60 | C18G A49U A119G | -1.83
61 | C18U C87G | ≤ -4.2
62 | C18G A120C | -1.21
63 | A19C U55A C123G C125A U148G | ≤ -4.2
64 | A19C U53A G92A | -3.8
65 | A19G A98U A115U A120U | -2.62
66 | C18U C38U U55C A97U A120C | -1.43
67 | A19G A23U C57G G84U C93G G94C A122U A142C | ≤ -4.2
68 | C18A A22C A23U A37C C72U G88A C125U U146G | ≤ -4.2
69 | A19C C38U C96U A142U | -0.812
70 | C18G C95U | 0.206
71 | C18U A142C | -0.999
72 | A19C U61A C103A | ≤ -4.2

Row | Variant | polymerase ribozyme fitness (log ratio)
73 | A19G C35U U53G C54A G71A U145C | -2.47
74 | C18U U31A A60G G84C A89C C105U | -2.16
75 | C18G A19U A23C G67C G126A G143U U144C | ≤ -4.2
76 | A19C C51U A52G G84U A89U G124U G141U | -1.23
77 | A19C A28C A73G C87U | ≤ -4.2
78 | C18U A19U A64G A89G A119U U146C | ≤ -4.2
79 | A19C A37U G70U U144C | ≤ -4.2
80 | C18U U53A C54U U56A G70A C85U C116U G141C | ≤ -4.2
81 | C18U C51U U53A G83A | -3.04
82 | C18G C54U U78C | -2.12
83 | C18U A41G C85A U134A | -3.02
84 | C18A A21U A29U U56A C95A A137G A142C | ≤ -4.2
85 | C18U A29U A52C C93A C125G U144A A147U | ≤ -4.2
86 | C18G C57A U134G U145A | -3.18
87 | C18G A37C C96G A106G | -1.07
88 | C18G C114G A122G | -3.64
89 | C18U C38G A40G U61A G81C C96A C116G A119U | ≤ -4.2
90 | A19C G70C C103G | ≤ -4.2
91 | C18A A28G A30C G46A G74C | ≤ -4.2
92 | C18G C32G C35U G86U C105G A115C | -4
93 | C18G G83A U145G U151G | ≤ -4.2
94 | A19G A26U C85A A97C A119U C123U | ≤ -4.2
95 | C18G C54U U56A A73G A91G | -3.27
96 | A19G A22G U31G A41U U44A A60C G81A G83C G84A U146A | ≤ -4.2

Row | Variant | polymerase ribozyme fitness (log ratio)
97 | C18U C51U C96A G126C C132U | -2.04
98 | C18G A23C A29G C51U C72G G81A G140U | ≤ -4.2
99 | C18U G50C G88C C99U | ≤ -4.2
100 | A19C A23G A24G U31A C35A A40U G48A C79A G140A | ≤ -4.2
101 | C18U A39G U53C C57G C75A U139G A150C | ≤ -4.2
102 | C18G C72U G86U G88C A150G | ≤ -4.2
103 | C18U A60G U82A G141C | -0.334
104 | A19C C57A C131A | -2.25
105 | A19C C57U G86A | -0.316
106 | C18G A49C G67U G84U A107U | ≤ -4.2
107 | C18U C27U A28C G74U G100U U144G G152C | ≤ -4.2
108 | C18U U55A G81C C93U C105U C118G | -1.85
109 | C18G A52C C93G | ≤ -4.2
110 | C18A A21U A52G C54U G92A C103A | ≤ -4.2
111 | C18G C85U U101C | -0.76
112 | C18U U56A C85A G124A U135G G136A | ≤ -4.2
113 | A19C C87U A97G A137U A142C | -4.12
114 | A19G C32A G46C C54U G59C A106U G128C | ≤ -4.2
115 | C18U A39C C57U G83A C95U U148C C149A | ≤ -4.2
116 | C18G A60C G84U C125U | -3.76
117 | C18G A23U A39G U55G A73U A89G A97U | ≤ -4.2
118 | C18A A29U G136A | ≤ -4.2
119 | C18G C35U C75U C95U A120G U134C | -2.68
120 | C18U C131A | -2.6

Row | Variant | polymerase ribozyme fitness (log ratio)
121 | A19C G65C C69G C85U C87G U102G A121G G124A U139G | ≤ -4.2
122 | A19C A21G C57A G58U C72U C85U C103U U134C | -0.327
123 | C18U U33A A39U A52C C72U G94A C95U C132U | ≤ -4.2
124 | A19C U56A | 0.406
125 | C18U A47G A52U G68U C79A C93U C99A G141C A142G G143U | ≤ -4.2
126 | C18G A29C C35A A89U G128A U144G | ≤ -4.2
127 | C18U A22G A49C G86A C131G | -4.14
128 | C18G A37G A66G G68C C93A G128A | ≤ -4.2
129 | A19C C79U A98U | -1.81
130 | A19G A91U | ≤ -4.2
131 | A19C G62C C72A C87A C131U U135A | ≤ -4.2
132 | A19C C96U A106G A120C | 0.311
133 | C18G U78A G83A C118U | ≤ -4.2
134 | C18U U61G A91C C93G C96U C99U A147U | ≤ -4.2
135 | C18U C57U G86A | -1.67
136 | A19G A26C U55G G83U U151C | ≤ -4.2
137 | A19C A66C G94A U134G | ≤ -4.2
138 | C18G A39G A40U G67A U90C A97G C99U | ≤ -4.2
139 | A19C U31C | 1.56
140 | A19C A40U G46A | -0.204
141 | C18G C57A C93U U135C U145G | -3.11
142 | A19C A24U C93U U135C | -2.84
143 | C18G A26U G86C A150U | -3.07
144 | C18G C57U | -0.371

Row | Variant | polymerase ribozyme fitness (log ratio)
145 | C18U A29U A30U G70C C149G | ≤ -4.2
146 | C18G A64C U82G A137G | ≤ -4.2
147 | C18U U53G C54A A91G A110G C114G | ≤ -4.2
148 | C18G U53A C57U G59C U61A C95G | -3.99
149 | A19G A21C A30U C38G A41C G48A U77G C93G C114G | ≤ -4.2
150 | C18U C85G U145A | -1.19
151 | A19C A20U U61C C76A U82C A91U U130G U146C | ≤ -4.2
152 | C18U A20U C103A G124A | -3.82
153 | C18G A20C C32A A40C U53A A91G | ≤ -4.2
154 | A19C A150U | 2.88
155 | A19C A150G | -0.495
156 | C18G G42A C54U G94A | ≤ -4.2
157 | A19C A20U C85U G136A | -0.21
158 | C18U C85U C105U | 0.286
159 | A19C C43U U61G A64C U77G C85U A110U C116G | ≤ -4.2
160 | C18G C85A | -1.49
161 | C18G C85G | -2.28
162 | C18G A21G C93U C149A | ≤ -4.2
163 | C18A A23G A28C C43U A52C U146A | ≤ -4.2
164 | C18G G71C C76A G88A G94A A113G A119U C129U | ≤ -4.2
165 | C18U A60G C76U C103G G112U | ≤ -4.2
166 | A19C A29C U33G C87G C108U U135A U148A | ≤ -4.2
167 | A19C U45A G67A | ≤ -4.2
